Data from paper PMC12416549 (2024).
Residue numbers refer to the chain shown, from its start. Names and notes keep the numbering of the source. Blank lines part the entries; values can stand above or below the binder they belong to.

Target: T1, TNFR1 (Homo sapiens, UniProt P19438)
T1 chain: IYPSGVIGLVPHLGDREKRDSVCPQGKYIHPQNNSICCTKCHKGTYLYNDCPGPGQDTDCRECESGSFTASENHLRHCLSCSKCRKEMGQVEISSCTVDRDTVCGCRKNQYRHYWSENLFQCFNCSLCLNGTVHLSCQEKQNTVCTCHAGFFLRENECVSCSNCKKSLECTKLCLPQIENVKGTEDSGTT
Test: yeast display SC50

B3: W68N (designed binder)
chain: MTLQELLREEALRRAEAEAFRYALELLAEKFPEQKEYLLDLAEEIESQIRSLSGVDVEDVRKFLDKENAWVKELLAEHPAELAEVEAARAARLAELRAEVEAKVAA
apparent Kd (screen): 12500 pM

B4: M1Q (designed binder)
chain: B3 chain with M1Q, N68W
apparent Kd (screen): 593 pM

B5: E95I (designed binder)
chain: B3 chain with N68W, E95I
apparent Kd (screen): 446 pM

B8: D40C (designed binder)
chain: B3 chain with D40C, N68W
apparent Kd (screen): 790 pM

B10: A42E (designed binder)
chain: B3 chain with A42E, N68W
apparent Kd (screen): 956 pM

B11: R92V (designed binder)
chain: B3 chain with N68W, R92V
apparent Kd (screen): 593 pM

B12: L93C (designed binder)
chain: B3 chain with N68W, L93C
apparent Kd (screen): 653 pM

B13: W68Y (designed binder)
chain: B3 chain with N68Y
apparent Kd (screen): 490 pM

B14: L82C (designed binder)
chain: B3 chain with N68W, L82C
apparent Kd (screen): 593 pM

B15: I49L (designed binder)
chain: B3 chain with I49L, N68W
apparent Kd (screen): 539 pM

B18: E18W (designed binder)
chain: B3 chain with E18W, N68W
apparent Kd (screen): 446 pM

B20: L3K (designed binder)
chain: B3 chain with L3K, N68W
apparent Kd (screen): 2480 pM

B21: L96Y (designed binder)
chain: B3 chain with N68W, L96Y
apparent Kd (screen): 490 pM

B22: E84D (designed binder)
chain: B3 chain with N68W, E84D
apparent Kd (screen): 490 pM

B23: A90E (designed binder)
chain: B3 chain with N68W, A90E
apparent Kd (screen): 490 pM

B24: F20P (designed binder)
chain: B3 chain with F20P, N68W
apparent Kd (screen): 7070 pM

B25: Q4E (designed binder)
chain: B3 chain with Q4E, N68W
apparent Kd (screen): 790 pM

B27: L93E (designed binder)
chain: B3 chain with N68W, L93E
apparent Kd (screen): 869 pM

B28: A102D (designed binder)
chain: B3 chain with N68W, A102D
apparent Kd (screen): 539 pM

B32: Q34Y (designed binder)
chain: B3 chain with Q34Y, N68W
apparent Kd (screen): 539 pM

B33: E9N (designed binder)
chain: B3 chain with E9N, N68W
apparent Kd (screen): 593 pM

B34: Q4Y (designed binder)
chain: B3 chain with Q4Y, N68W
apparent Kd (screen): 490 pM

B35: A94S (designed binder)
chain: B3 chain with N68W, A94S
apparent Kd (screen): 593 pM

B37: L27I (designed binder)
chain: B3 chain with L27I, N68W
apparent Kd (screen): 1270 pM

B39: L26P (designed binder)
chain: B3 chain with L26P, N68W
apparent Kd (screen): 13800 pM

B40: L52V (designed binder)
chain: B3 chain with L52V, N68W
apparent Kd (screen): 490 pM

B42: R13A (designed binder)
chain: B3 chain with R13A, N68W
apparent Kd (screen): 368 pM

B44: T2V (designed binder)
chain: B3 chain with T2V, N68W
apparent Kd (screen): 593 pM

B45: L7V (designed binder)
chain: B3 chain with L7V, N68W
apparent Kd (screen): 2250 pM

B47: L27P (designed binder)
chain: B3 chain with L27P, N68W
apparent Kd (screen): 7780 pM

B49: A23I (designed binder)
chain: B3 chain with A23I, N68W
apparent Kd (screen): 653 pM

B50: L39G (designed binder)
chain: B3 chain with L39G, N68W
apparent Kd (screen): 3000 pM

B51: E81R (designed binder)
chain: B3 chain with N68W, E81R
apparent Kd (screen): 539 pM

B52: E67S (designed binder)
chain: B3 chain with E67S, N68W
apparent Kd (screen): 6430 pM

B55: A15S (designed binder)
chain: B3 chain with A15S, N68W
apparent Kd (screen): 539 pM

B57: E5I (designed binder)
chain: B3 chain with E5I, N68W
apparent Kd (screen): 490 pM

B58: P32I (designed binder)
chain: B3 chain with P32I, N68W
apparent Kd (screen): 490 pM

B59: M1M (designed binder)
chain: B3 chain with N68W
apparent Kd (screen): 490 pM

More lines, now with the values ahead:

apparent Kd (screen): 1270 pM
B1: S51Q (designed binder)
chain: B3 chain with S51Q, N68W

apparent Kd (screen): 790 pM
B2: E18V (designed binder)
chain: B3 chain with E18V, N68W

apparent Kd (screen): 490 pM
B6: A11Y (designed binder)
chain: B3 chain with A11Y, N68W

apparent Kd (screen): 790 pM
B7: L64Q (designed binder)
chain: B3 chain with L64Q, N68W

apparent Kd (screen): 718 pM
B9: E101Q (designed binder)
chain: B3 chain with N68W, E101Q

apparent Kd (screen): 653 pM
B16: A87W (designed binder)
chain: B3 chain with N68W, A87W

apparent Kd (screen): 593 pM
B17: Q4T (designed binder)
chain: B3 chain with Q4T, N68W

apparent Kd (screen): 869 pM
B19: R97P (designed binder)
chain: B3 chain with N68W, R97P

apparent Kd (screen): 593 pM
B26: Y22R (designed binder)
chain: B3 chain with Y22R, N68W

apparent Kd (screen): 790 pM
B29: A91S (designed binder)
chain: B3 chain with N68W, A91S

apparent Kd (screen): 593 pM
B30: E101L (designed binder)
chain: B3 chain with N68W, E101L

apparent Kd (screen): 790 pM
B31: L74F (designed binder)
chain: B3 chain with N68W, L74F

apparent Kd (screen): 13800 pM
B36: E10Q (designed binder)
chain: B3 chain with E10Q, N68W

apparent Kd (screen): 593 pM
B38: L82H (designed binder)
chain: B3 chain with N68W, L82H

apparent Kd (screen): 490 pM
B41: E46G (designed binder)
chain: B3 chain with E46G, N68W

apparent Kd (screen): 539 pM
B43: Q4D (designed binder)
chain: B3 chain with Q4D, N68W

apparent Kd (screen): 7780 pM
B46: E44Y (designed binder)
chain: B3 chain with E44Y, N68W

apparent Kd (screen): 2250 pM
B48: E25P (designed binder)
chain: B3 chain with E25P, N68W

apparent Kd (screen): 539 pM
B53: V100W (designed binder)
chain: B3 chain with N68W, V100W

apparent Kd (screen): 11400 pM
B54: L38D (designed binder)
chain: B3 chain with L38D, N68W

apparent Kd (screen): 490 pM
B56: K30H (designed binder)
chain: B3 chain with K30H, N68W
